Measurements from patent US20240400715A1 (VIBRANT PHARMA, published 2024).
Where a chain is given by its changes, count along the chain named. Where “and” joins values, the source holds several entries; their conditions need not be identical. Equal values may be shown once. Each block holds one binder with its values, some of them ahead of it.

Assays:
[1] = molecular target: T1, human CD3ε/δ (ACRO systems, CDD-H52W1) (human, UniProt P07766 23-126; P04234 22-105); experiment: BLI, antibody captured on AHC sensor, 30 C
T1 construct: bought recombinant heterodimer; also called human CD3 epsilon/delta; Human CD3ε/CD3δ

[2] = molecular target: T1, human CD3ε/δ (ACRO systems, CDD-H52W1); experiment: serum-stability ELISA, Day 7 vs Day 0
Protocol: (§1) The samples to be tested were centrifuged at 4° C. at 12000 rpm for 30 minutes to remove the precipitate. 200 μl of each sample to be tested (0.5 mg/ml) was collected in a 1.5 ml Eppendorf tube. An equal volume of human serum (GEMINI, H2OYOOK) was added, mixed thoroughly, and the mixture was incubated in a 37° C. constant temperature CO₂ incubator. For a total of 10 days, 40 μl samples was aspirated every day and stored at −20° C.
(§2) Enzyme-linked immunosorbent assay (ELISA) was used to test the bispecific antibodies' binding to human CEA and human CD3 epsilon/delta antigen. The steps are as follows: the antigen human CD3ε/δ (ACRO systems, CDD-H52W1) and the recombinant tumor antigen human CEA (CEACAM-5/CD66e, ACRO systems, CE5-H5226) were diluted to 1 μg/ml with PBS, and then added to the 96-well plate at 100 μl per well. The wells were coated overnight at 4° C. After washing 3 times with 0.05% PBST, 200 μl 5% skimmed milk powder was added to each well and incubated at 37° C. for 2 h. After washing 3 times with 0.05% PBST, 100 μl primary antibody sample (10 μg/ml) was added to each well, and incubated at 37° C. for 2 h. After washing 3 times with 0.05% PBST, 100 μl (1:6000) diluted secondary antibody goat anti-human Fc-HRP (sigma, A2170) was added to each well, incubated at room temperature for 1 h. After washing 8 times with 0.05% PBST, 50 μl TMB color developing solution was added to each well, and incubated at room temperature for 10-15 min. 50 μl 1 mM HCl was added to each well to stop the color development. 450 nm Absorbance (OD) was read.
(§3) The binding of antibodies to antigen was calculated according to the following formula: Binding (%)=[(ODdayn−ODb)/(ODday0−ODb)]×100%. ODdayn: experimental well (the protein was stored in the serum for n days); ODday0: control well (the protein was not stored in the serum); ODb: blank well (no primary antibody added).

[3] = molecular target: T1, human CD3ε/δ (ACRO systems, CDD-H52W1); experiment: serum-stability ELISA, Day 6 vs Day 0
Protocol: as §1, §2, §3

[4] = molecular target: T1, human CD3ε/δ (ACRO systems, CDD-H52W1); experiment: serum-stability ELISA, Day 10 vs Day 0
Protocol: as §1, §2, §3

[5] = molecular target: T1, human CD3ε/δ (ACRO systems, CDD-H52W1); experiment: serum-stability ELISA, Day 1 vs Day 0
Protocol: as §1, §2, §3

[6] = molecular target: T1, human CD3ε/δ (ACRO systems, CDD-H52W1); experiment: serum-stability ELISA, Day 9 vs Day 0
Protocol: as §1, §2, §3

[7] = molecular target: T1, human CD3ε/δ (ACRO systems, CDD-H52W1); experiment: serum-stability ELISA, Day 2 vs Day 0
Protocol: as §1, §2, §3

[8] = molecular target: T1, human CD3ε/δ (ACRO systems, CDD-H52W1); experiment: serum-stability ELISA, Day 5 vs Day 0
Protocol: as §1, §2, §3

[9] = molecular target: T1, human CD3ε/δ (ACRO systems, CDD-H52W1); experiment: serum-stability ELISA, Day 0 (reference)
Protocol: as §1, §2, §3

[10] = molecular target: T2, human CD3 on Jurkat cells (human, UniProt P07766 23-207; P04234 22-171; P09693 23-182); experiment: FACS, Jurkat cells;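 note: flow cytometric binding of bispecific antibodies to Jurkat T cells, threefold serial dilutions incubated half an hour in the cold, EC50 taken from the fitted binding curve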
T2 construct: whole, on cells; CD3 complex as on Jurkat (Clone E6-1) cells; also called CD3 expressing cells (Jurkat)
Protocol: The binding of the bispecific antibodies was tested on the CA expressing human lung adenocarcinoma cell line (H1573) and the CD3 expressing immortalized T lymphocyte line (Jurkat). The steps are as follows: the cells were harvested, counted, and resuspended in FACS buffer (PBS containing 0.1% BSA) at 2×10⁶ cells/ml. 100 μl of cell suspension was incubated in a V-bottom 96-well plate at 4° C. with 3-fold serial dilutions of bispecific antibodies (20 μg/ml-0.009 μg/ml) for 30 minutes; washed twice with pre-cooled FACS buffer. […] GraphPadPrism was used to obtain the binding curve.

[11] = molecular target: T3, human CD3ε/δ (ACRO systems, CDD-H52W1) (human, UniProt P07766 23-126; P04234 22-105); experiment: BLI, antibody captured, antigen in solution;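 note: bispecific antibodies captured on AHIC biosensors to a 1.5 nm loading signal, in PBST with 0.02% detergent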
T3 construct: Bought protein; also called human CD3ϵ/CD3δ; human CD3 epsilon/delta antigen
Protocol: The bispecific antibodies were diluted to 5 ag/ml, and 1.5 nm protein was coupled to the surface of the AHIC sensor chip through 0.02% PBST.

B2: 103 (Fab-Knob+Hole-CEA) (bispecific antibody, human IgG4 S228P, kappa, F234A L235A)
heavy: EVKLLESGGGLVQPKGSLKLSCAASGFTFNTYAMNWVRQAPGKGLEWVARIRSKYNNYATYYADSVKDRFTISRDDSQSILYLQMNNLKTEDTAMYYCVRHGNFGNSYVSWFAYWGQGTLVTVSSASTKGPSVFPLAPCSRSTSESTAALGCLVKDYFPEPVTVSWNSGALTSGVHTFPAVLQSSGLYSLSSVVTVPSSSLGTKTYTCNVDHKPSNTKVDKRVESKYGPPCPPCPAPEAAGGPSVFLFPPKPKDTLMISRTPEVTCVVVDVSQEDPEVQFNWYVDGVEVHNAKTKPREEQFNSTYRVVSVLTVLHQDWLNGKEYKCKVSNKGLPSSIEKTISKAKGQPREPQVYTLPPCQEEMTKNQVSLWCLVKGFYPSDIAVEWESNGQPENNYKTTPPVLDSDGSFFLYSRLTVDKSRWQEGNVFSCSVMHEALHNHYTQKSLSLSL
chain: ESKYGPPCPPCPAPEAAGGPSVFLFPPKPKDTLMISRTPEVTCVVVDVSQEDPEVQFNWYVDGVEVHNAKTKPREEQFNSTYRVVSVLTVLHQDWLNGKEYKCKVSNKGLPSSIEKTISKAKGQPREPQVCTLPPSQEEMTKNQVSLSCAVKGFYPSDIAVEWESNGQPENNYKTTPPVLDSDGSFFLVSRLTVDKSRWQEGNVFSCSVMHEALHNRFTQKSLSLSLGGGGSGGGGSEVQLVESGGGFVQAGESLTLSCTSSTLTFTPYRMAWYRQAPGKQRDLVADISSGDGRTTNYADFAKGRFTISRDNIKNTVFLRMTNLKPEDTAVYYCNTFVSFVGIARSWGQGTQVTVSS
light: QAVVTQESALTTSPGETVTLTCRSSTGAVTTSNYANWVQEKPDHLFTGLIGGTNKRAPGVPARFSGSLIGDKAALTITGAQTEDEAIYFCALWYSNLWVFGGGTKVEIKRTVAAPSVFIFPPSDEQLKSGTASVVCLLNNFYPREAKVQWKVDNALQSGNSQESVTEQDSKDSTYSLSSTLTLSKADYEKHKVYACEVTHQGLSSPVTKSFNRGEC
notes: TA1 Fab, C17 VHH, IgG4 Fc KIH
Binding % [2]: 107% | Binding % [3]: 105% | Binding % [4]: 100% | Binding % [5]: 101% | Binding % [6]: 103% | Binding % [7]: 106% | Binding % [8]: 105% | Binding % [9]: 100%

B5: 101 (Fab-Knob+CEA-Hole) (bispecific antibody, human IgG4 S228P, kappa, F234A L235A)
heavy: B2 heavy
chain: EVQLVESGGGFVQAGESLTLSCTSSTLTFTPYRMAWYRQAPGKQRDLVADISSGDGRTTNYADFAKGRFTISRDNIKNTVFLRMTNLKPEDTAVYYCNTFVSFVGIARSWGQGTQVTVSSESKYGPPCPPCPAPEAAGGPSVFLFPPKPKDTLMISRTPEVTCVVVDVSQEDPEVQFNWYVDGVEVHNAKTKPREEQFNSTYRVVSVLTVLHQDWLNGKEYKCKVSNKGLPSSIEKTISKAKGQPREPQVCTLPPSQEEMTKNQVSLSCAVKGFYPSDIAVEWESNGQPENNYKTTPPVLDSDGSFFLVSRLTVDKSRWQEGNVFSCSVMHEALHNRFTQKSLSLSL
light: B2 light
notes: TA1 anti-CD3 Fab, C17 anti-CEA VHH, human IgG4 Fc knob-into-hole
Binding % [2]: 100% | Binding % [3]: 103% | Binding % [4]: 101% | Binding % [5]: 98.5% | Binding % [6]: 102% | Binding % [7]: 101% | Binding % [8]: 99.2% | Binding % [9]: 100%

B6: 102 (Fab-Knob-CEA+Hole) (bispecific antibody, human IgG4 S228P, kappa, F234A L235A)
heavy: EVKLLESGGGLVQPKGSLKLSCAASGFTFNTYAMNWVRQAPGKGLEWVARIRSKYNNYATYYADSVKDRFTISRDDSQSILYLQMNNLKTEDTAMYYCVRHGNFGNSYVSWFAYWGQGTLVTVSSASTKGPSVFPLAPCSRSTSESTAALGCLVKDYFPEPVTVSWNSGALTSGVHTFPAVLQSSGLYSLSSVVTVPSSSLGTKTYTCNVDHKPSNTKVDKRVESKYGPPCPPCPAPEAAGGPSVFLFPPKPKDTLMISRTPEVTCVVVDVSQEDPEVQFNWYVDGVEVHNAKTKPREEQFNSTYRVVSVLTVLHQDWLNGKEYKCKVSNKGLPSSIEKTISKAKGQPREPQVYTLPPCQEEMTKNQVSLWCLVKGFYPSDIAVEWESNGQPENNYKTTPPVLDSDGSFFLYSRLTVDKSRWQEGNVFSCSVMHEALHNHYTQKSLSLSLGGGGSGGGGSEVQLVESGGGFVQAGESLTLSCTSSTLTFTPYRMAWYRQAPGKQRDLVADISSGDGRTTNYADFAKGRFTISRDNIKNTVFLRMTNLKPEDTAVYYCNTFVSFVGIARSWGQGTQVTVSS
chain: ESKYGPPCPPCPAPEAAGGPSVFLFPPKPKDTLMISRTPEVTCVVVDVSQEDPEVQFNWYVDGVEVHNAKTKPREEQFNSTYRVVSVLTVLHQDWLNGKEYKCKVSNKGLPSSIEKTISKAKGQPREPQVCTLPPSQEEMTKNQVSLSCAVKGFYPSDIAVEWESNGQPENNYKTTPPVLDSDGSFFLVSRLTVDKSRWQEGNVFSCSVMHEALHNRFTQKSLSLSL
light: B2 light
notes: TA1 Fab, C17 VHH, IgG4 Fc KIH
Binding % [2]: 105% | Binding % [3]: 110% | Binding % [4]: 102% | Binding % [5]: 106% | Binding % [6]: 100% | Binding % [7]: 111% | Binding % [8]: 108% | Binding % [9]: 100%

Other lines, results leading:

Kd [1]: 3.14 nM | koff [1]: 0.000508 s⁻¹ | kon [1]: 162000 M⁻¹ s⁻¹
B1: HER2-CD3 bispecific antibody 501 (bispecific antibody, human IgG4 S228P, kappa, F234A L235A)
heavy: B2 heavy
chain: QVQLVQSGGGLVQAGGSLRLSCAASGRTFSSYAMAWFRQAPGKEREFVAAISWSGANIYVADSVKGRFTISRDNAKDTVYLQMNSLKPEDTAVYYCAVKLGFAPVEERQYDYWGQGTQVTVSSESKYGPPCPPCPAPEAAGGPSVFLFPPKPKDTLMISRTPEVTCVVVDVSQEDPEVQFNWYVDGVEVHNAKTKPREEQFNSTYRVVSVLTVLHQDWLNGKEYKCKVSNKGLPSSIEKTISKAKGQPREPQVCTLPPSQEEMTKNQVSLSCAVKGFYPSDIAVEWESNGQPENNYKTTPPVLDSDGSFFLVSRLTVDKSRWQEGNVFSCSVMHEALHNRFTQKSLSLSL
light: B2 light
notes: VHH-hole chain assembled from VHH and hole-Fc with hinge

EC50 [10]: 0.69 µg/mL and 5.31 nM | Kd [11]: 0.589 nM | koff [11]: 0.000215 s⁻¹ | kon [11]: 366000 M⁻¹ s⁻¹
B3: Knob+Fab-Hole-CEA (106) (bispecific antibody, human IgG4 S228P, kappa, F234A L235A)
chain: B6 chain with C131Y, S136C, S148W, A150L, V189Y, R217H, F218Y
heavy: B6 heavy with Y354C, C359S, W371S, L373A, Y412V, H440R, Y441F
light: B2 light
notes: Anti-CD3 TA1 Fab + anti-CEA VHH C17 on human IgG4 knob-into-hole Fc

Kd [1]: 2.79 nM | koff [1]: 0.0005 s⁻¹ | kon [1]: 179000 M⁻¹ s⁻¹
B4: HER2-CD3 bispecific antibody 504 (bispecific antibody, human IgG4 S228P, kappa, F234A L235A)
chain: B1 chain with C254Y, S259C, S271W, A273L, V312Y, R340H, F341Y
heavy: B2 heavy with Y354C, C359S, W371S, L373A, Y412V, H440R, Y441F
light: B2 light
notes: VHH-knob chain assembled from VHH and knob-Fc with hinge
